Source: patent publication US20140234213A1 (FOX CHASE CANCER CENTER, published 2014)

Biological target: T1, human Mullerian inhibiting substance Type II receptor (MISIIR) (human, UniProt Q16671 18-573)
T1 construct: whole, on cells; also called MIS type II receptor; AMHR2
T1 sequence (looked up): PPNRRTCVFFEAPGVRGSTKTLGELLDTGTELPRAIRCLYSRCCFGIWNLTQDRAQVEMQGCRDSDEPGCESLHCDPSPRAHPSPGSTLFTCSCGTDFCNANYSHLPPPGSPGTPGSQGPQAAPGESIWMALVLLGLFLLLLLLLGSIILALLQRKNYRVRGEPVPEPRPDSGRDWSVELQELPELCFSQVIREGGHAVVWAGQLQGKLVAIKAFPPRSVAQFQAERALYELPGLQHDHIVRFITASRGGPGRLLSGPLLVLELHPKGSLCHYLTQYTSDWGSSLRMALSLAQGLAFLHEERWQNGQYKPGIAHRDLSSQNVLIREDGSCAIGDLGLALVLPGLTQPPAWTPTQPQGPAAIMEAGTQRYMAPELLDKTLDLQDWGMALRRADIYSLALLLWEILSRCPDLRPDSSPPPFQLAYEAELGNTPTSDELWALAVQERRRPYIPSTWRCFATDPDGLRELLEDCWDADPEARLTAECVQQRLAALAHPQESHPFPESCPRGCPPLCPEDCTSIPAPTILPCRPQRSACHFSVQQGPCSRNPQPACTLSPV
Test: inferred by the filing from the reporter gene assay (block of MIS-induced signaling); no direct binding assay
Method: FIG. 3 provides a schematic of a reporter gene assay to measure MISIIR signaling. The Tlx-2 (T-cell leukemia, homeobox 2) gene is a downstream target of BMP and MIS signaling (Tang et al. (1998) Development 125:1877-1887). Genes encoding mouse TLX2-luciferase and human MISIIR were stably transfected into P19 mouse neuroblastoma cells that normally lack MISIIR.
The ability of the new hybrid scFv molecules to block MIS binding to MISIIR was determined using a reporter gene assay in which signaling through MISIIR on the surface of […] cells triggers luminescence in the cells (FIG. 3). MIS was added to the cells in the presence or absence of the different scFv molecules and the resulting luminescence was measured (FIG. 4).

binding result: binds
B1: RAD-1-0003 (E3 1DQH3) scFv (scFv)
scFv: MAQVQLQQSGPGLVKPSQTLSLTCAISGDSVSSKSATWNWIRQSPSRGLEWLGRTYYRSKWYNDYAESVKSRITIKPDTTKNHFSLQLKSVTPEDTAVYYCASPPGGKLLISLSEERISAHHVPMDYWGQGTLVTVSSSASGAELGGGGSGGGGSGGGGSTSQAVLTQPSSASGTPGQRVTISCSGSSSNIGAGYDVHWYQQLPGTAPKLLIYGNSNRPSGVPDRFSGSKSGTSASLAITGLQAEDEADYYCQSYDSSLSAHNYVFGTGTKVTLLG
notes: Hybrid scFv on the E3 framework with the MIS loop in the heavy chain CDR3, in a different orientation than RAD-1-0001
